Source: paper PMC7022936

These sequences were tested on DcGliZ full-length (Dichotomomyces cejpii FS110) (assay: SPR). Settings: SPR: HBS-EP (10 mM HEPES pH 7.4, 150 mM NaCl, 0.005% P20), 22 C; EMSA: Beyotime chemiluminescent kit, 5 uL of 1 uM probe + 2 uL protein (~1 mg/mL in Methods …).

Sequence	Kd [nM]
TTACTTCTTGGTCTACTCCGTATTGTGAATCGAAATGAGATAGAAGTATAGTTCTACTGTACTGGTTTCTATCTGCTTAAAATAAATACAATTGTGCCTTCTATACAGATCAGTATGTAGAATGAACTGATAGACCTCCAGGAGGTTCTTCCTCCGAGCCTGCAACGCCCAAGAGGAGAACTGTGCATACGCCAGGACAGATTTTCGGCCTCCGAAAAGGACTGAGGATAGTATCTGCCATGTTTATATATAACTGAGGGAATAGACCAGGTAGATAACAGCAAAATCAACTAAACATCATC (double strand) [pN (gliN promoter)]	104
TAGTCTATCACTGAACAGTTGAATGAATTTGTTTCAAGACAGCTAAAGCTCCATTCTAGCCGTACGTACTGGTAGTTCTCCGCATAGAAACATATATCTCTCTGCTTGGTCAAAGTCAGGTATCGCCGACAAGTCTTAATATCTGCAGAGTATTCGGTGACCGAAATAGGGTCGGAATATAAGCCATATATATCACTGTTCTGGAAATCAAGAAAATATAACAGTTGAATACTCACTTTTCTAACATTCCAACAATCAGTTGAGCTCGATCACA (double strand) [pM (gliM promoter)]	162
GTTTCTATGTCTATATCGGAGGAGTGATCAACGGCGTCCGAAAATTCGGCCCGCGGCTGTCTTAGGGCTGGCCTGCAGGTGTAGGGTTCATTATGAAAGACTGGTAGTATTATGCTGCTATTTAGTCAAAAGCAGAAGAACAGTTTGTCTTTAGACCTTGAATAGATATCTGTCAAGACAAGAGCCAAGAAAGTCCCATCACCATGGCAGACATGACCGAACGACCTTCTGATCTCGTTGTGGACAGGCTGGTTCTCTTCG (double strand) [pG (gliG promoter)]	160
